Holding throughout (test): two-hybrid; fluorescence-based mammalian two-hybrid: bait EDC4 (or a fragment) fused to the SV40 NLS forms nuclear dots in transfected HEp-2 cells; prey scored by immunofluorescence for co-localisation in nuclear dots 24 h after transfection; three transfections, at least 30 cells each, mean +/- …
Assay [1] concerns the target NLS-EDC4 (full-length EDC4, amino acids 1–1437, fused to the NLS of SV40 T antigen).
In a further assay the target is GFP-NLS-EDC4(935–1437).
The target in assay [2] is NLS-EDC4 (full-length EDC4, amino acids 1–1437, fused to the NLS of SV40 T antigen). This is another data set of the same source.

This note sets out measurements from PMC9987799.

As for “NLS-LSm14a (SV40 T antigen NLS fused to LSm14a) (from UniProt Q8ND56 1-463) (natural protein)”, the percent of cells with both proteins in the nucleus that had the two in nuclear dots in assay [1] was 86%.

B1: CCHCR1-Myc (natural protein)
chain: MFPPSGSTGLIPPSHFQARPLSTLPRMAPTWLSDIPLVQPPGHQDVSERRLDTQRPQVTMWERDVSSDRQEPGRRGRSWGLEGSQALSQQAEVIVRQLQELRRLEEEVRLLRETSLQQKMRLEAQAMELEALARAEKAGRAEAEGLRAALAGAEVVRKNLEEGSQRELEEVQRLHQEQLSSLTQAHEEALSSLTSKAEGLEKSLSSLETRRAGEAKELAEAQREAELLRKQLSKTQEDLEAQVTLVENLRKYVGEQVPSEVHSQTWELERQKLLETMQHLQEDRDSLHATAELLQVRVQSLTHILALQEEELTRKVQPSDSLEPEFTRKCQSLLNRWREKVFALMVQLKAQELEHSDSVKQLKGQVASLQEKVTSQSQEQAILQRSLQDKAAEVEVERMGAKGLQLELSRAQEARRRWQQQTASAEEQLRLVVNAVSSSQIWLETTMAKVEGAAAQLPSLNNRLSYAVRKVHTIRGLIARKLALAQLRQESCPLPPPVTDVSLELQQLREERNRLDAELQLSARLIQQEVGRAREQGEAERQQLSKVAQQLEQELQQTQESLASLGLQLEVARQGQQESTEEAASLRQELTQQQELYGQALQEKVAEVETRLREQLSDTERRLNEARREHAKAVVSLRQIQRRAAQEKERSQELRRLQEEARKEEGQRLARRLQELERDKNLMLATLQQEGLLSRYKQQRLLTVLPSLLDKKKSVVSSPRPPECSASAPVAAAVPTRESIKGSLSVLLDDLQDLSEAISKEEAVCQGDNLDRCSSSNPQMSS
On to B1, for which the percent of cells expressing both proteins with the two co-localized in nuclear dots in the assay with GFP-NLS-EDC4(935–1437) was determined as 96%.

B2: Myc-PATL1(398–770) (domain or fragment)
chain: KDPYANLMLQREKDWVSKIQMMQLQSTDPYLDDFYYQNYFEKLEKLSAAEEIQGDGPKKERTKLITPQVAKLEHAYKPVQFEGSLGKLTVSSVNNPRKMIDAVVTSRSEDDETKEKQVRDKRRKTLVIIEKTYSLLLDVEDYERRYLLSLEEERPALMDDRKHKICSMYDNLRGKLPGQERPSDDHFVQIMCIRKGKRMVARILPFLSTEQAADILMTTARNLPFLIKKDAQDEVLPCLLSPFSLLLYHLPSVSITSLLRQLMNLPQSAATPALSNPHLTAVLQNKFGLSLLLILLSRGEDLQSSDPATESTQNNQWTEVMFMATRELLRIPQAALAKPISIPTNLVSLFSRYVDRQKLNLLETKLQLVQGIR
On to B2, for which, in assay [2], the percent of cells expressing both proteins with the two co-localized in nuclear dots was found to be 97%.

B3: mCh-NLS-XRN1(1232–1706) (domain or fragment)
chain: EFCNIWQSLQGSGKMQYFQPTIQEKGAVLPQEISQVNQHHKSGFNDNSVKYQQRKHDPHRKFKEECKSPKAECWSQKMSNKQPNSGIENFLASLNISKENEVQSSHHGEPPSEEHLSPQSFAMGTRMLKEILKIDGSNTVDHKNEIKQIANEIPVSSNRRDEYGLPSQPKQNKKLASYMNKPHSANEYHNVQSMDNMCWPAPSQIPPVSTPVTELSRICSLVGMPQPDFSFLRMPQTMTVCQVKLSNGLLVHGPQCHSENEAKEKAALFALQQLGSLGMNFPLPSQVFANYPSAVPPGTIPPAFPPPTGWDHYGSNYALGAANIMPSSSHLFGSMPWGPSVPVPGKPFHHTLYSGTMPMAGGIPGGVHNQFIPLQVTKKRVANKKNFENKEAQSSQATPVQTSQPDSSNIVKVSPRESSSASLKSSPIAQPASSFQVETASQGHSISHHKSTPISSSRRKSRKLAVNFGVSKPSE
As to B3, in assay [2], the percent of cells expressing both proteins with both in nuclear dots worked out at 94%.
